Test results from patent US20090269840A1 (UCB, published 2009).
One block for each binder: values may come before it.

Key:
[1] = target: T1, 7 Ig-domain human KDR fused to human Fc (human, UniProt P35968 20-764); test: BIAcore, KDR-Fc captured on anti-Fc chip, antibody passed over
T1 construct: domain: 7 Ig-domain; also called human 7-domain KDR-Fc; KDR-Fc; not shown: human Fc
Description: (§1) 7 Ig-domain human KDR fused to human Fc was captured on a chip coated with anti-Fc, and the various fragments of the CDR grafted antibody g165 and the murine parent antibody VR165 were passed over permitting affinity determination. The table below summarises the results obtained. In this assay format, there is an advantage of divalency as shown by the lower off rates (Kd) of the divalent species. The affinity of the grafted DFM is very similar to the murine IgG, with the DFM-PEG showing a minor reduction of affinity.

[2] = target: T1, 7 Ig-domain human KDR fused to human Fc; test: BIAcore, KDR-Fc captured on anti-Fc chip, fragment passed over
Description: as §1

[3] = target: T1, 7 Ig-domain human KDR fused to human Fc; test: radioimmunoassay: 7 Ig-domain KDR-human Fc captured by polyclonal anti-Fc on a microtitre plate, fragment added, then 125-I labeled VEGF-165 as the blocked ligand
Description: The ability of the fragments to block VEGF binding to KDR was measured in a radioimmunoassay.

T1 sequence (P35968 20-764 limits assumed): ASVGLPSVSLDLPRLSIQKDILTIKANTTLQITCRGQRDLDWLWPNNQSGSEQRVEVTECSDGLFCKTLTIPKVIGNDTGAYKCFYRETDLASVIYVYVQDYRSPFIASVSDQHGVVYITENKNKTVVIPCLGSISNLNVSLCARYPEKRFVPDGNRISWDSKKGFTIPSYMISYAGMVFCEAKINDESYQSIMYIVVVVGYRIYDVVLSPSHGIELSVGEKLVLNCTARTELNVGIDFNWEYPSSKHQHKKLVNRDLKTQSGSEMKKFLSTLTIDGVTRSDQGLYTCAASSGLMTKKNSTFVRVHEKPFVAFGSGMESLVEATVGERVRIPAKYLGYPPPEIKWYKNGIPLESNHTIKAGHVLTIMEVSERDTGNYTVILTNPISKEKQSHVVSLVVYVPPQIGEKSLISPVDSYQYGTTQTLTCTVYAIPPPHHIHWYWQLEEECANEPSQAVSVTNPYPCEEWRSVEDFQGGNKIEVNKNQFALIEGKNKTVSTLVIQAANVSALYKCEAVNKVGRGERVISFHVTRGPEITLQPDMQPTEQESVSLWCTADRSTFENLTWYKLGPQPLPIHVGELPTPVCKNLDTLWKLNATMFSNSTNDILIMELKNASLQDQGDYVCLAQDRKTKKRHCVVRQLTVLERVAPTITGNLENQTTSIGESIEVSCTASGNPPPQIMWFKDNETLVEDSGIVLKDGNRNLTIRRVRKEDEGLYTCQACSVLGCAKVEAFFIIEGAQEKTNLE

Kd [1]: 0.03 nM
B1: mouse monoclonal antibody VR165 (antibody, mouse IgG2a, V domains shown)
VH: EVQLVESGGDLVKPGGSLKLSCAASGFTFSSYGMSWVRQTPDKRLQWVATITSGGSYTYYPDTVKGRFTISRDNAENTLYLQMSSLKSEDTAMYYCVRIGEDALDYWGQGTSVTVSS
VL: DIQMTQSPSSLSASLGERVSLTCRASQDIAGSLNWLRQEPDGTIKRLIYATSSLDSGVPKRFSGSRSGSDYSLTISSLESEDFVDYYCLQYGSFPPTFGGGSKLEIKR
notes: also called mIgG; murine IgG

Kd [2]: 0.91 nM
IC50 (read off the curve) [3]: ~0.2 µg/mL
B2: g165 modified Fab (Fab') fragment, CDP791 (Fab, V domains shown)
VH: EVQLVESGGGLVQPGGSLRLSCAASGFTFSSYGMSWVRQAPGKGLEWVATITSGGSYTYYVDSVKGRFTISRDNAKNTLYLQMNSLRAEDTAVYYCVRIGEDALDYWGQGTLVTVSS
VL: DIQMTQSPSSLSASVGDRVTITCRASQDIAGSLNWLQQKPGKAIKRLIYATSSLDSGVPKRFSGSRSGSDYTLTISSLQPEDFATYYCLQYGSFPPTFGQGTKVEIKR
notes: g165 = gL3gH3; no limits stated; also called CDP791 Fab

Kd [2]: 1.07 nM
B3: g165 FAB-PEG40 (PEGylated modified Fab of g165) (Fab, V domains shown)
VH: B2 VH
VL: B2 VL
modifications: single cysteine of the truncated hinge linked to (mPEG)-lysyl maleimide (two mPEG of about 20,000 Da, about 40,000 Da in all)
notes: no limits stated

Kd [2]: 0.041 nM
IC50 (read off the curve) [3]: ~0.05 µg/mL
B4: g165 DFM-PEG40 (PEGylated di-(modified Fab) of g165) (other)
light: DIQMTQSPSSLSASVGDRVTITCRASQDIAGSLNWLQQKPGKAIKRLIYATSSLDSGVPKRFSGSRSGSDYTLTISSLQPEDFATYYCLQYGSFPPTFGQGTKVEIKRTVAAPSVFIFPPSDEQLKSGTASVVCLLNNFYPREAKVQWKVDNALQSGNSQESVTEQDSKDSTYSLSSTLTLSKADYEKHKVYACEVTHQGLSSPVTKSFNRGEC
heavy: EVQLVESGGGLVQPGGSLRLSCAASGFTFSSYGMSWVRQAPGKGLEWVATITSGGSYTYYVDSVKGRFTISRDNAKNTLYLQMNSLRAEDTAVYYCVRIGEDALDYWGQGTLVTVSSASTKGPSVFPLAPSSKSTSGGTAALGCLVKDYFPEPVTVSWNSGALTSGVHTFPAVLQSSGLYSLSSVVTVPSSLGTQTYICNVNHKPSNTKVDKKVEPKSCDKTHTCAA
modifications: hinge cysteine linked to (mPEG)-lysyl bis-maleimide (PEG about 40 kDa)
notes: no limits stated

Kd [2]: 0.029 nM
B5: g165 DFM (di-(modified Fab) of the CDR-grafted antibody g165, naked) (other)
light: B4 light
heavy: B4 heavy
modifications: hinge cysteine cross-linked to the second Fab' (linker of the naked DFM not described)
notes: also called grafted DFM; naked DFM
